Results as given in US20220323495A1 (NATIONAL RESEARCH COUNCIL OF CANADA, published 2022).

T1: EGFRvIII amino acid residues 15 to 37 with Val17 to Ala mutation, yeast-displayed (human, not fully specified)
T1 construct: The entry already carries the mutation
T1 peptide: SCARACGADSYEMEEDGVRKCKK

T2: EGFRvIII amino acid residues 15 to 37 with Asp23 to Ala mutation, yeast-displayed (human, not fully specified)
T2 construct: The entry already carries the mutation
T2 peptide: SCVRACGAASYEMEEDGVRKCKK

T3: EGFRvIII amino acid residues 15 to 37 with Tyr25 to Ala mutation, yeast-displayed (human, not fully specified)
T3 construct: The entry already carries the mutation
T3 peptide: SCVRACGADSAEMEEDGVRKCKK

T4: EGFRvIII amino acid residues 15 to 37 with Glu26 to Ala mutation, yeast-displayed (human, not fully specified)
T4 construct: The entry already carries the mutation
T4 peptide: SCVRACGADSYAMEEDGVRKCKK

T5: EGFRvIII amino acid residues 15 to 37 with Gly31 to Ala mutation, yeast-displayed (human, not fully specified)
T5 construct: The entry already carries the mutation
T5 peptide: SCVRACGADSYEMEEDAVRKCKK

B1: F265-5B7 anti-EGFRvIII monoclonal antibody (antibody, V domains shown)
VH: QIQLVQSGPELKKPGETVMISCKASGYSFTNYGMNWVKQAPEKDLKWMGWINTYTGESRYVDEFKGRFAFSLETSVSIVYLKINNLKNEDMATYFCARGPNFDVWGTGTTVTVSS
VL: not shown
notes: Mouse hybridoma IgG, tested as supernatant or Protein G purified mAb; also called 5B7-2
B2: F269-3D12 anti-EGFRvIII monoclonal antibody (antibody, V domains shown)
VH: EVQLQQSGPELVKPGSSVRISCKASGYTFTDYNMDWVKQSHGKSLEWIGTINPNNGGTSYNQKFKGKATLTVDKSSSTAYMELRSLTSEDSAVYYCARVRQLGLWFAYWGQGTLVTVSA
VL: EIVLTQSPALMAASPGEKVTITCSVSSSISSSNLHWYQQKSETSPKPWIYGTSNLASGVPVRFSGSGSGTSYSLTISSMEAEDAATYYCQQWSSYPLTFGSGTKLEIK
notes: Mouse hybridoma IgG, tested as supernatant or Protein G purified mAb; also called 3D12-2

Assays:
[1] = molecular target: T1, EGFRvIII amino acid residues 15 to 37 …; assay: flow cytometry on yeast displaying the mutated 15-37 fragment
Text: (§1) Assessment of the binding of anti-EGFRvIII monoclonal antibodies to the fusion proteins expressed on yeast cell surface was done by flow cytometry analysis. Yeast cells were labeled with both the anti-EGFRvIII monoclonal antibody and chicken anti-Myc antibody the latter being used to monitor the level of expression of the fusion protein. Following a wash step, binding of the primary antibodies is probed by a two-color indirect fluorescence labeling using a specific mouse and chicken secondary antibodies for each of the primary antibody respectively.
(§2) To further characterize mAb epitopes within the EGFRvIII 15-37 region, an alanine scan of this region was performed, and modified fragments were expressed at the surface of the yeast. […] The resulting DNAs were expressed at the surface of the yeast and each anti-EGFRvIII mAbs was tested on the corresponding yeast mutant strain by flow cytometry analysis. The original Ala19 and Ala22 were not mutated. Thus, this assay determined the contribution of each amino acid(s) in mAb binding in comparison to the original wild-type fragment (SEQ ID NO:5) which is attributed the value of 100%.

[2] = molecular target: T2, EGFRvIII amino acid residues 15 to 37 …; assay: as above
Text: as §1, §2

[3] = molecular target: T3, EGFRvIII amino acid residues 15 to 37 …; assay: flow cytometry on yeast displaying the Ala-mutated 15-37 fragment; normalized to Myc-tag; wild-type fragment = 100%
Text: as §1, §2

[4] = molecular target: T4, EGFRvIII amino acid residues 15 to 37 …; assay: as above
Text: as §1, §2

[5] = molecular target: T5, EGFRvIII amino acid residues 15 to 37 …; assay: as above
Text: as §1, §2

[6] = molecular target: T3, EGFRvIII amino acid residues 15 to 37 …; assay: flow cytometry on yeast displaying the mutated 15-37 fragment
Text: as §1, §2

[7] = molecular target: T4, EGFRvIII amino acid residues 15 to 37 …; assay: as above
Text: as §1, §2

[8] = molecular target: T2, EGFRvIII amino acid residues 15 to 37 …; assay: flow cytometry on yeast displaying the Ala-mutated 15-37 fragment; normalized to Myc-tag; wild-type fragment = 100%
Text: as §1, §2

Row | Binder | binding result [1] | binding result [2] | % of binding compared to the wild-type sequence [3] | % of binding compared to the wild-type sequence [4] | % of binding compared to the wild-type sequence [5] | binding result [6] | binding result [7] | % of binding compared to the wild-type sequence [8]
1 | B1 | no binding | no binding | 192% | 140% | 98.9% | – | – | –
2 | B2 | – | – | – | – | – | no binding | no binding | 62.4%
